Earlier results as cited in paper PMC8495968, “Towards optimizing peptide-based inhibitors of protein–protein interactions: predictive saturation variation scanning (PreSaVS)” (RSC Chemical Biology, 2021).

Target: SIM (RanBP2) 2705-2717 (Homo sapiens) (UniProt P49792)
Assay: fluorescence anisotropy

Chain of SUMO-1 (P63165 2-97): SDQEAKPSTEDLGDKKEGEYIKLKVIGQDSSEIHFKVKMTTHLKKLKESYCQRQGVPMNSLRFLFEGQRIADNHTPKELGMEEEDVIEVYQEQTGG

Substance: SUMO-1 (from UniProt P63165)
- Kd: 1500 nM
